The target in test [1] is VEGF-165, VEGFC and VEGFD mixture. The test can be described thus: cell-based or functional assay.
For test [2], the target named is recombinant human VEGF165 protein (human) (UniProt P15692). The test is described as follows: cell-based or functional assay.

EYLEA (Fc fusion), sequence (chain): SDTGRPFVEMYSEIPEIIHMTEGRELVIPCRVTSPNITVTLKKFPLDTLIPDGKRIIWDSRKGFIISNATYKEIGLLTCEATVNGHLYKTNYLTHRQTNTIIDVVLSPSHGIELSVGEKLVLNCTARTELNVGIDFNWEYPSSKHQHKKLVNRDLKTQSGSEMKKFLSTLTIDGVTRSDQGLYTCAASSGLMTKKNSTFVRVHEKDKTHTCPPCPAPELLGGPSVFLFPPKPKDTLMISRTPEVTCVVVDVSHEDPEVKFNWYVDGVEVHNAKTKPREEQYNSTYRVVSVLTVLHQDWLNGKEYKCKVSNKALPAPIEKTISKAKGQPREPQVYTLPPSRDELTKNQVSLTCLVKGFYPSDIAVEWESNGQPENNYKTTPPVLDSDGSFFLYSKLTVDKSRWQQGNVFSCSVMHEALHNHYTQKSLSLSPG

With Avastin (bevacizumab) (antibody), in test [1], the EC50(nM), neutralizing VEGF165, VEGFC and VEGFD mixture, HUVEC proliferation amounted to 0.77 nM; the Maximum neutralization rate Emax (%), VEGF165, VEGFC and VEGFD mixture, HUVEC proliferation was 58.5%.
For EYLEA (Fc fusion), in test [2], the EC50(nM), neutralizing VEGF165 at 10 ng/mL, HUVEC proliferation was determined as 0.16 nM; the EC50(nM), neutralizing VEGF165 at 100 ng/mL, HUVEC proliferation worked out at 2.9 nM; the EC50(nM), neutralizing VEGF165 at 1000 ng/mL, HUVEC proliferation turned out to be 40.2 nM; the maximum neutralization rate (%), VEGF165 at 10 ng/mL, HUVEC proliferation was 101%. Further, in test [2], the maximum neutralization rate (%), VEGF165 at 100 ng/mL, HUVEC proliferation is 98.7% and the maximum neutralization rate (%), VEGF165 at 1000 ng/mL, HUVEC proliferation stood at 80.2%.

(Values after US20220144930A1.)
